Source: patent US20030212253A1 (AMERICAN NATIONAL RED CROSS, published 2003)
Values belong to the molecule of their own block, whether it stands above or below them. Non-standard residues stand in square brackets, D forms with d. No end group written: not given here. 2Nal = N[C@@H](Cc1ccc2ccccc2c1)C(=O)O; Ahx = NCCCCCC(=O)O

What was measured:
[1] = target: fibrinogen (human plasma) (human) (UniProt P02671); assay: affinity chromatography of 5 ml plasma on 0.8 ml peptide resin column
albumin (human plasma) = target: T1, albumin (human plasma) (human, UniProt P02768 25-609); assay: affinity chromatography of fibrinogen- and Apo-A1-depleted plasma on peptide resin, 0.020 M sodium citrate; nephelometry
T1 construct: mature
Protocol: Fibrinogen and Apo-A1 lipoprotein-depleted plasma (prepared in Example 5) was loaded at a linear velocity of 30 cm/hour (0.4 ml/min; RT=5.1) onto 2.0 ml column (CF=0.785 cm²) that had been equilibrated with 0.14 M NaCl, 0.020 M sodium citrate, pH 7.0 (EQ buffer). After the column was washed with EQ buffer and 2.0 M NaCl, 0.020 M sodium citrate, pH 6.0, to baseline, the API protein was eluted with 2.0 M NaCl, 1% Tween 20, 0.020 M sodium citrate, pH 6.0. The column was regenerated with 2.0 M guanidine-HCl, 2% Sarkosyl and 2% acetic acid and stored in 20% methanol. […] Not all of the API was quantitatively eluted, but could be eluted using 2M guanidine. Purification of API protein to approximately 70% purity was accomplished with ligand HFVAPH (SEQ ID NO: 46) (isolated from an L-Library).

[2] = target: vWF/fVIII complex (human plasma) (human) (UniProt P04275); assay: batch binding of pooled human plasma to peptide resin, then column elution; load 8.46 IU; fVIII coagulation assay
[3] = target: vWF/fVIII complex (human plasma) (human) (UniProt P04275); assay: batch binding of pooled human plasma to peptide resin, then column elution; fVIII coagulation assay
[4] = target: vWF/fVIII complex (human plasma) (human) (UniProt P04275); assay: batch binding of pooled human plasma to peptide resin, then column elution; fVIII chromogenic assay
[5] = target: vWF/fVIII complex (human plasma) (human) (UniProt P04275); assay: batch binding of 20 ml pooled human plasma to 0.8 ml peptide resin, then column elution; load 21.4 IU; fVIII chromogenic assay
[6] = target: fibrinogen (human plasma) (human) (UniProt P02671); assay: affinity chromatography of plasma on peptide resin, Evaluation 2, load 51 mg; nephelometric fibrinogen antigen
[7] = target: fibrinogen (human plasma) (human) (UniProt P02671); assay: affinity chromatography of plasma on peptide resin, Evaluation 1; nephelometric fibrinogen antigen
[8] = target: fibrinogen (human plasma) (human) (UniProt P02671); assay: affinity chromatography of plasma on peptide resin, Evaluation 2; nephelometric fibrinogen antigen
[9] = target: fibrinogen (human plasma) (human) (UniProt P02671); assay: affinity chromatography of plasma on peptide resin, ligand density 0.67-0.94 mmol/g resin
[10] = target: fibrinogen (human plasma) (human) (UniProt P02671); assay: affinity chromatography of plasma on peptide resin, Evaluation 1, load 51 mg; nephelometric fibrinogen antigen

dynamic resin capacity [1]: 5 to 8 mg
Molecule: HWQ (SEQ ID NO: 7) peptide attached to a chromatography resin

binding result (albumin (human plasma)): no binding
Molecule: HFVAPH (also: immobilised on resin via C-terminus, Immobilised on chromatography resin) [L-HFVAPH (SEQ ID NO: 46) peptide ligand displayed on resin]

Further lines, the molecule ahead of its results:

Molecule: EAD[2Nal]ED (not fully specified (C-terminus)) [D-EADna2′ED (SEQ ID NO: 66) resin]
total FVIII in flow-through (IU), coagulation assay [2]: 1.6 IU
FVIII recovery in elution 1, 0.75 M NaCl (%), coagulation assay [3]: 46%
FVIII recovery in elution 2, 1.0 M NaCl (%), coagulation assay [3]: 0%
FVIII recovery in flow-through (%), coagulation assay [3]: 18.9%
FVIII recovery in wash, 0.5 M NaCl (%), coagulation assay [3]: 0%
total FVIII in elution 1, 0.75 M NaCl (IU), coagulation assay [3]: 3.9 IU
total FVIII in elution 2, 1.0 M NaCl (IU), coagulation assay [3]: 0 IU
total FVIII in wash, 0.5 M NaCl (IU), coagulation assay [3]: 0 IU
FVIII recovery in elution 1, 0.75 M NaCl (%), chromogenic assay [4]: 21.5%
FVIII recovery in elution 2, 1.0 M NaCl (%), chromogenic assay [4]: 0%
FVIII recovery in flow-through (%), chromogenic assay [4]: 7.5%
FVIII recovery in wash, 0.5 M NaCl (%), chromogenic assay [4]: 5.6%
total FVIII in elution 1, 0.75 M NaCl (IU), chromogenic assay [4]: 4.6 IU
total FVIII in elution 2, 1.0 M NaCl (IU), chromogenic assay [4]: 0 IU
total FVIII in wash, 0.5 M NaCl (IU), chromogenic assay [4]: 1.2 IU
total FVIII in flow-through (IU), chromogenic assay [5]: 1.6 IU

Molecule: [dA]RQFDF[Ahx] (also: D- prefix in name, which residues are D is not settled) [D-ARQFDF (SEQ ID NO: 20) peptide displayed on ToyoPearl AF-Amino 650 M resin]
total fibrinogen in elution [6]: 54 mg
fibrinogen in flow thru + post wash [7]: < 0.15 mg/mL
recovery of fibrinogen in elution (%) [7]: 91%
fibrinogen in flow thru + post wash [8]: < 0.15 mg/mL
recovery of fibrinogen in elution (%) [8]: 100%
dynamic resin capacity [9]: 6 to 8 g/L of resin
total fibrinogen in elution [10]: 46 mg
